# According to the RNAGym collection of RNA variant scans (doi:10.1073/pnas.2313332121):
# B1: TPR t1 (parent)
# chain: GACCAAUCUGCCCUCAGAGCUCGAGAACAUCUUCGGAUGCAGAGGAGGCAGGCUUCGGUGGCGCGAUAGCGCCAACGUCCUCAACCUCCAAUGCAUCCCACCACAUGAUGAUGCCUGAAGAGCCUUGGUUUUUUG
# Variants of: B1
# Test: polymerase ribozyme fitness, log enrichment relative to wild type (log ratio); higher = more active; in vitro selection for triplet polymerase activity
# In short: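 A single round of triplicate in vitro selection, including frozen incubation at −7 °C, was applied to PCR-built, transcribed mutant libraries of each subunit of a heterodimeric triplet polymerase ribozyme. Illumina sequencing of input and output libraries retained genotypes with ≥10 input reads and ≥1 read per output. Fitness is the base-2 logarithm of genotype enrichment divided by wild-type enrichment, from inverse-variance-weighted replicate averages.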
row,Variant,polymerase ribozyme fitness (log ratio)
1,G39U C53A C82A C124G,1.35
2,A41G C56A A75U G117U,-3.99
3,G39U C49U C97A C124A G127A,-5.83
4,A41G G51U C114G,-5.83
5,C40U G135U,-1.59
6,C40A U78C U92A C115U,-4.02
7,A41U A43U G69C G77C G93A C124G U131A,-1.81
8,A41U C64U U87C U106C C123A,-1.38
9,C40G C72G U92A G113U,-4.69
10,A41U,-1.14
11,A41C,-0.956
12,A41G,-0.0621
13,C40U G44U C49U C53A A84C C86G G113C U125C,-3.99
14,C40U G51C G57U C89U G120U,-3.44
15,A41U A68G,-5.2
16,C40U G63A,-1.95
17,C40U G63U,-1.68
18,C40A C62A A118G,-2.61
19,C40A U92G,-2.37
20,C40U G48A C53A G113C,-2.73
21,C40A G60A C85G,-2.93

row,Variant,polymerase ribozyme fitness (log ratio)
1,G39U G44U C53G C62A C98U U112A U129C U130A,-5.78
2,A41C C76U C89U A111C,-1.22
3,C40A C88A G117A,-3.85
4,G39U G61A C101U G117A A118G U125A,-0.872
5,A41U G77A U116C U129C,-3.98
6,G39U G61A A75U U81C C99A G117U,-7.32
7,G39U U78C G120A,0.169
8,G39U C53G C123U,1.06
9,C40G C56U A100U C101G,-2.81
10,G39U C123U,0.845
11,G39U C123G,0.0216
12,A41G G61C A95C C101U U106A,-3.41
13,C40U U87A,-0.311
14,C40A A46U C79G C104U,-6.75
15,C40G G52A C62U G128C,-3.34
16,G39U G60A C76G,-3.27
17,C40A C124U,0.897
18,G39U G61U U106A,-0.274
19,A41C C72G,-1.5
20,C40A A84G A95C U125G U126G U129A,-4.98
21,C40G A43U U112G A119U U126A,-4.57

row,Variant,polymerase ribozyme fitness (log ratio)
1,C40G A111C,-0.485
2,C40G A111G,-0.323
3,A41G C64U A91U U106A G110A,-5.83
4,A41C G60C C101G U126G U132C,-4.76
5,A41C G71U C98U C114A,-5.3
6,A41G G51A A90C,-5.76
7,A41G G71C U116G,-3.99
8,A41U A105C,-5.02
9,A41U C64U C73U U106C,-1.79
10,C40U G58C,-0.23
11,A41U C70A U78G C123U,-3.32
12,C40U C64U A90C,-1.97
13,C40U G52U C88A,-1.07
14,C40U G52U U96G A105U G120A G128C U131G,-6.51
15,C40G G113A,-0.856
16,A41C C89G,-3.37
17,A41C C89U,-0.432
18,C40A A74G U130C,-0.804
19,A41U C53U C73A G120U,-2.14
20,C40U A43C G93C C115A,-2.74
21,A41G G63U,-2.37

row,Variant,polymerase ribozyme fitness (log ratio)
1,C40G G127C,-1.55
2,G39U C49G C64U G117C,-4.42
3,C40U G51A G60U C82G U96A U116G,-6.02
4,G39U G45A,-2.22
5,A41U G57A G77A,-1.68
6,C40A A43U C70U C86U G93U C97G G135C,-6.34
7,C40A C114G,-3.8
8,A41G C102U,-3.18
9,A41G C73G U87C C104U C115A C123G G135A,0.00105
10,C40U C49G U59A,-1.73
11,C40G C104U G113C G122A,-3.43
12,G42A A83U,-2.65
13,G39U G113A U132A,-2.47
14,G39U G52A,-1.4
15,G39U G52U,-1.9
16,G39U C40U G42A C56U,-2.23
17,C40U C73A,-0.621
18,C40U C53A G113C,-2.73
19,C40U C88A,-0.911
20,C40U G52A G60U A91U U109A,-6.64
21,A41C G48A G51U C80A C99G C115A U116G,-6.22
